B1: RAB11B (parent)
chain: AVPTDEARAFAEKNNLSFIETSAL

Variants of: B1
Assay: protein stability index of a GFP-peptide fusion (GPS, HEK-293T) (PSI 1-6); higher = more stable
Conditions: c terminus: a fixed tail appended
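Further: lentivirally expressed fusions sorted by FACS into six bins by GFP to DsRed ratio, PSI derived from sequencing read proportions per bin multiplied by bin number.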

Variant	protein stability index
AVPTDEAKAFAEKNNLSFIETSAL [R8K]	3.08
AVPTDEACAFAEKNNLSFIETSAL [R8C]	2.78
AVPTDEAQAFAEKNNLSFIETSAL [R8Q]	2.45
AVPTDEASAFAEKNNLSFIETSAL [R8S]	2.46
AVPTDEAEAFAEKNNLSFIETSAL [R8E]	3.31
AVPTDEATAFAEKNNLSFIETSAL [R8T]	2.67
AVPTDEADAFAEKNNLSFIETSAL [R8D]	3.37
AVPTDEAGAFAEKNNLSFIETSAL [R8G]	3.22
AVPTDEAVAFAEKNNLSFIETSAL [R8V]	3.04
AVPTDEAIAFAEKNNLSFIETSAL [R8I]	2.9
AVPTDEAHAFAEKNNLSFIETSAL [R8H]	2.99
AVPTDEAFAFAEKNNLSFIETSAL [R8F]	2.69
AVPTDEAAAFAEKNNLSFIETSAL [R8A]	2.77
AVPTDEAPAFAEKNNLSFIETSAL [R8P]	2.65
AVPTDEALAFAEKNNLSFIETSAL [R8L]	2.33
AVPTDEAWAFAEKNNLSFIETSAL [R8W]	2.94
AVPTDEANAFAEKNNLSFIETSAL [R8N]	3.06
AVPTDEAMAFAEKNNLSFIETSAL [R8M]	2.45
AVPTDEAYAFAEKNNLSFIETSAL [R8Y]	3.12
AVPSDEARAFAEKNNLSFIETSAL [T4S]	2.6
AVPFDEARAFAEKNNLSFIETSAL [T4F]	2
AVPYDEARAFAEKNNLSFIETSAL [T4Y]	2.37
AVPEDEARAFAEKNNLSFIETSAL [T4E]	3.23
AVPVDEARAFAEKNNLSFIETSAL [T4V]	2.78

Variant	protein stability index
AVPLDEARAFAEKNNLSFIETSAL [T4L]	2.33
AVPCDEARAFAEKNNLSFIETSAL [T4C]	2.78
AVPMDEARAFAEKNNLSFIETSAL [T4M]	1.98
AVPQDEARAFAEKNNLSFIETSAL [T4Q]	3.05
AVPDDEARAFAEKNNLSFIETSAL [T4D]	3.63
AVPNDEARAFAEKNNLSFIETSAL [T4N]	2.65
AVPGDEARAFAEKNNLSFIETSAL [T4G]	3.17
AVPPDEARAFAEKNNLSFIETSAL [T4P]	2.5
AVPKDEARAFAEKNNLSFIETSAL [T4K]	2
AVPRDEARAFAEKNNLSFIETSAL [T4R]	1.77
AVPHDEARAFAEKNNLSFIETSAL [T4H]	2.5
AVPADEARAFAEKNNLSFIETSAL [T4A]	2.45
AVPWDEARAFAEKNNLSFIETSAL [T4W]	2.21
AVPIDEARAFAEKNNLSFIETSAL [T4I]	2.77
AVPTDEARAFAAKNNLSFIETSAL [E12A]	2.89
AVPTDEARAFACKNNLSFIETSAL [E12C]	1.91
AVPTDEARAFAIKNNLSFIETSAL [E12I]	1.99
AVPTDEARAFALKNNLSFIETSAL [E12L]	2.02
AVPTDEARAFAFKNNLSFIETSAL [E12F]	1.74
AVPTDEARAFAHKNNLSFIETSAL [E12H]	2.65
AVPTDEARAFAKKNNLSFIETSAL [E12K]	1.93
AVPTDEARAFADKNNLSFIETSAL [E12D]	2.81
AVPTDEARAFAPKNNLSFIETSAL [E12P]	2.34
AVPTDEARAFAMKNNLSFIETSAL [E12M]	1.97

Variant	protein stability index
AVPTDEARAFAGKNNLSFIETSAL [E12G]	2.16
AVPTDEARAFANKNNLSFIETSAL [E12N]	2.02
ATPTDEARAFAEKNNLSFIETSAL [V2T]	2.62
ASPTDEARAFAEKNNLSFIETSAL [V2S]	3.09
AWPTDEARAFAEKNNLSFIETSAL [V2W]	2.52
ARPTDEARAFAEKNNLSFIETSAL [V2R]	2.35
AYPTDEARAFAEKNNLSFIETSAL [V2Y]	2.52
AVPTDEARFFAEKNNLSFIETSAL [A9F]	2.63
AVPTDEARTFAEKNNLSFIETSAL [A9T]	3.02
AVPTDEARGFAEKNNLSFIETSAL [A9G]	2.85
AVPTDEAREFAEKNNLSFIETSAL [A9E]	3.82
AVPTDEARRFAEKNNLSFIETSAL [A9R]	2.32
AVPTDEARSFAEKNNLSFIETSAL [A9S]	2.33
AVPTDEARIFAEKNNLSFIETSAL [A9I]	2.45
AVPTDEARWFAEKNNLSFIETSAL [A9W]	1.78
AVPTDEARCFAEKNNLSFIETSAL [A9C]	2.49
AVPTDEARYFAEKNNLSFIETSAL [A9Y]	2.48
AVPTDEARDFAEKNNLSFIETSAL [A9D]	3.4
AVPTDEARLFAEKNNLSFIETSAL [A9L]	2.98
AVPTDEARKFAEKNNLSFIETSAL [A9K]	1.91
AVPTDEARNFAEKNNLSFIETSAL [A9N]	2.52
AVPTDEARMFAEKNNLSFIETSAL [A9M]	2.79
AVPTDEARVFAEKNNLSFIETSAL [A9V]	2.71
AVPTDEARPFAEKNNLSFIETSAL [A9P]	2.44

Variant	protein stability index
AVPTDEARHFAEKNNLSFIETSAL [A9H]	2.07
AVPTDEARQFAEKNNLSFIETSAL [A9Q]	3.14
AVPTDEARAFNEKNNLSFIETSAL [A11N]	2.87
AVPTDEARAFFEKNNLSFIETSAL [A11F]	2.69
AVPTDEARAFKEKNNLSFIETSAL [A11K]	2.19
AVPTDEARAFHEKNNLSFIETSAL [A11H]	2.3
AVPTDEARAFDEKNNLSFIETSAL [A11D]	3.88
AVPTDEARAFCEKNNLSFIETSAL [A11C]	3.16
AVPTDEARAFEEKNNLSFIETSAL [A11E]	3.69
AVPTDEARAFPEKNNLSFIETSAL [A11P]	2.8
AVPTDEARAFVEKNNLSFIETSAL [A11V]	2.3
AVPTDEARAFYEKNNLSFIETSAL [A11Y]	2.15
AVPTDEARAFQEKNNLSFIETSAL [A11Q]	2.85
AVPTDEARAFREKNNLSFIETSAL [A11R]	2.35
AVPTDEARAFSEKNNLSFIETSAL [A11S]	2.68
AVPTDEARAFIEKNNLSFIETSAL [A11I]	2.66
AVPTDEARAFTEKNNLSFIETSAL [A11T]	2.71
AVPTDEARAFLEKNNLSFIETSAL [A11L]	2.4
AVPTDEARAFWEKNNLSFIETSAL [A11W]	2.48
AVPTDEARAFGEKNNLSFIETSAL [A11G]	2.16
AVPTDEARAFMEKNNLSFIETSAL [A11M]	2.8
AVPTDEHRAFAEKNNLSFIETSAL [A7H]	2.23

— the supplement of paper PMC10567573
